These results are taken from patent publication US20200164038A1, “MODIFIED NUCLEOSIDE, NUCLEOTIDE, AND NUCLEIC ACID COMPOSITIONS” (ModernaTX, Inc., priority 2011, published 2020).

For data set [1], the system named is Human primary foreskin fibroblasts (BJ fibroblasts). In words: Innate immune response in BJ fibroblasts, repeat transfection (IFN-beta, IL-6). The format is cell-based. The conditions noted are these: daily transfection, Day 1.
The test system of the next data set is Female BALB/C mice. In words: In vivo detection of innate immune response: human G-CSF and mouse IFN-alpha in serum. The conditions noted are these: Protein: Cytokine Ratio.
Data set [2] is described as follows: Stability of modified RNA on storage (gel electrophoresis). The data set is classed as physicochemical. Here is the method: Stability experiments were conducted to obtain a better understanding of storage conditions to retain the integrity of modified RNA. […] 40° C. 37° C. 25° C. 4° C. or −20° C. After the mRNA had been stored for 0 hours, 2 hours, 6 hours, 24 hours, 48 hours, 5 days and 14 days, the mRNA was analyzed by gel electrophoresis using a Bio-Rad EXPERION™ system. The modified, unmodified and lipoplexed G-CSF mRNA was also stored in RNASTABLE® (Biomatrica, Inc. San Diego, Calif.) at 40° C. or water at −80° C. or 40° C. for 35 days before being analyzed by gel electrophoresis.
mRNA samples stored at 4° C. 25° C. and 37° C. were stored in 1×TE buffer or the formulation buffer (150 mM sodium chloride, 2 mM calcium chloride, 2 mM phosphate, 0.5 mM EDTA at a pH of 6.5). The mRNA stored at 4° C. was stable to at least 60 days in both the TE and formulation buffer. At 25° C. the mRNA in formulation buffer was stable out to 14 days and the TE buffer was stable out to at least 6 days. Storage of mRNA in the formulation buffer at 37° C. was stable to 6 days compared to the TE buffer which was stable only until 4 days.

The next data set deals with mice. In words: Saline formulation: human protein in mouse serum 13 hours after injection. The format is in vivo. The following applies: G-CSF group, 100 ug. Here is the method:
The mice were bled at 13 hours after the injection to determine the concentration of the human polypeptide in serum in pg/mL. (G-CSF groups measured human G-CSF in mouse serum and EPO groups measured human EPO in mouse serum).

Procedure for Female BALB/C mice: Blood is collected at 8 hours after dosing and using ELISA the protein levels of G-CSF and interferon-alpha (IFN-alpha) is determined by ELISA and are shown in Table 81.

B1: G-CSF Gen 2: G-CSF mRNA SEQ ID NO 6, Cap1, fully modified with 5-methylcytosine and N1-methylpseudouridine (nucleic acid, listed as Homo sapiens)
chain: GGGAAAUAAGAGAGAAAAGAAGAGUAAGAAGAAAUAUAAGAGCCACCAUGGCCGGUCCCGCGACCCAAAGCCCCAUGAAACUUAUGGCCCUGCAGUUGCUGCUUUGGCACUCGGCCCUCUGGACAGUCCAAGAAGCGACUCCUCUCGGACCUGCCUCAUCGUUGCCGCAGUCAUUCCUUUUGAAGUGUCUGGAGCAGGUGCGAAAGAUUCAGGGCGAUGGAGCCGCACUCCAAGAGAAGCUCUGCGCGACAUACAAACUUUGCCAUCCCGAGGAGCUCGUACUGCUCGGGCACAGCUUGGGGAUUCCCUGGGCUCCUCUCUCGUCCUGUCCGUCGCAGGCUUUGCAGUUGGCAGGGUGCCUUUCCCAGCUCCACUCCGGUUUGUUCUUGUAUCAGGGACUGCUGCAAGCCCUUGAGGGAAUCUCGCCAGAAUUGGGCCCGACGCUGGACACGUUGCAGCUCGACGUGGCGGAUUUCGCAACAACCAUCUGGCAGCAGAUGGAGGAACUGGGGAUGGCACCCGCGCUGCAGCCCACGCAGGGGGCAAUGCCGGCCUUUGCGUCCGCGUUUCAGCGCAGGGCGGGUGGAGUCCUCGUAGCGAGCCACCUUCAAUCAUUUUUGGAAGUCUCGUACCGGGUGCUGAGACAUCUUGCGCAGCCGUGAAGCGCUGCCUUCUGCGGGGCUUGCCUUCUGGCCAUGCCCUUCUUCUCUCCCUUGCACCUGUACCUCUUGGUCUUUGAAUAAAGCCUGAGUAGGAAG
modifications: Cap1; 5-methylcytosine, N1-methylpseudouridine
For the molecule B1, the IFNbeta in data set [1] amounted to 3 pg/mL. In addition, the “PC Ratio” value in the data set on Female BALB/C mice stood at 748.

B2: G-CSF Gen 1: G-CSF mRNA SEQ ID NO 6, Cap1, fully modified with 5-methylcytosine and pseudouridine (nucleic acid, listed as Homo sapiens)
chain: GGGAAAUAAGAGAGAAAAGAAGAGUAAGAAGAAAUAUAAGAGCCACCAUGGCCGGUCCCGCGACCCAAAGCCCCAUGAAACUUAUGGCCCUGCAGUUGCUGCUUUGGCACUCGGCCCUCUGGACAGUCCAAGAAGCGACUCCUCUCGGACCUGCCUCAUCGUUGCCGCAGUCAUUCCUUUUGAAGUGUCUGGAGCAGGUGCGAAAGAUUCAGGGCGAUGGAGCCGCACUCCAAGAGAAGCUCUGCGCGACAUACAAACUUUGCCAUCCCGAGGAGCUCGUACUGCUCGGGCACAGCUUGGGGAUUCCCUGGGCUCCUCUCUCGUCCUGUCCGUCGCAGGCUUUGCAGUUGGCAGGGUGCCUUUCCCAGCUCCACUCCGGUUUGUUCUUGUAUCAGGGACUGCUGCAAGCCCUUGAGGGAAUCUCGCCAGAAUUGGGCCCGACGCUGGACACGUUGCAGCUCGACGUGGCGGAUUUCGCAACAACCAUCUGGCAGCAGAUGGAGGAACUGGGGAUGGCACCCGCGCUGCAGCCCACGCAGGGGGCAAUGCCGGCCUUUGCGUCCGCGUUUCAGCGCAGGGCGGGUGGAGUCCUCGUAGCGAGCCACCUUCAAUCAUUUUUGGAAGUCUCGUACCGGGUGCUGAGACAUCUUGCGCAGCCGUGAAGCGCUGCCUUCUGCGGGGCUUGCCUUCUGGCCAUGCCCUUCUUCUCUCCCUUGCACCUGUACCUCUUGGUCUUUGAAUAAAGCCUGAGUAGGAAG
modifications: Cap1; 5-methylcytosine, pseudouridine
Consider B2, for which the “stable out to” value was 120 h in data set [2] (stored at 25° C., with or without lipoplex); 24 h in data set [2] (stored at 37° C.); 6 h in data set [2] (stored at 50° C.). Further, in the data set with mice, the “Average Protein Product, human G-CSF” value is listed as 45 pg/mL, serum.
